From paper PMC4737671 (International Journal of Biological Sciences, 2016)

Target: the molecule itself
Assay: atomic force microscopy

Protein	stoichiometry N	binding result
BRCA1 fragment 421-988aa (domain or fragment, human, UniProt P38398 421-988, looked up) EYSGSSEKIDLLASDPHEALICKSERVHSKSVESNIEDKIFGKTYRKKASLPNLSHVTENLIIGAFVTEPQIIQERPLTNKLKRKRRPTSGLHPEDFIKKADLAVQKTPEMINQGTNQTEQNGQVMNITNSGHENKTKGDSIQNEKNPNPIESLEKESAFKTKAEPISSSISNMELELNIHNSKAPKKNRLRRKSSTRHIHALELVVSRNLSPPNCTELQIDSCSSSEEIKKKKYNQMPVRHSRNLQLMEGKEPATGAKKSNKPNEQTSKRHDSDTFPELKLTNAPGSFTKCSNTSELKEFVNPSLPREEKEEKLETVKVSNNAEDPKDLMLSGERVLQTERSVESSSISLVPGTDYGTQESISLLEVSTLGKAKTEPNKCVSQCAAFENPKGLIHGCSKDNRNDTEGFKYPLGHEVNHSRETSIEMEESELDAQYLQNTFKVSKRQSFAPFSNPGNAEEECATFSAHSGSLKKQSPKVTFECEQKEENQGKNESNIKPVQTVNITAGFPVVGQKDKPVDNAKCSIKGGSRFCLSSQFRGNETGLITPNKHGLLQNPYRIPPLFPIKS	2	
BRCA1 281-701aa (domain or fragment, human, UniProt P38398 281-701, looked up) SSLQHENSSLLLTKDRMNVEKAEFCNKSKQPGLARSQHNRWAGSKETCNDRRTPSTEKKVDLNADPLCERKEWNKQKLPCSENPRDTEDVPWITLNSSIQKVNEWFSRSDELLGSDDSHDGESESNAKVADVLDVLNEVDEYSGSSEKIDLLASDPHEALICKSERVHSKSVESNIEDKIFGKTYRKKASLPNLSHVTENLIIGAFVTEPQIIQERPLTNKLKRKRRPTSGLHPEDFIKKADLAVQKTPEMINQGTNQTEQNGQVMNITNSGHENKTKGDSIQNEKNPNPIESLEKESAFKTKAEPISSSISNMELELNIHNSKAPKKNRLRRKSSTRHIHALELVVSRNLSPPNCTELQIDSCSSSEEIKKKKYNQMPVRHSRNLQLMEGKEPATGAKKSNKPNEQTSKRHDSDTFPELK		binds
